The values below come from article PMC7943601.

This assay deals with PrgJ (S. enterica sv. Typhimurium (endogenous in SB905)) (UniProt P41785). Kind of assay: cryo-EM structure.

PrgJ, sequence (P41785 whole entry): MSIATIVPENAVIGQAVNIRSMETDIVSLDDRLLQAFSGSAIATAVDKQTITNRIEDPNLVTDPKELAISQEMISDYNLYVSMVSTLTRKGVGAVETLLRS

Substance “PrgJ (from UniProt P41785 1-101) (natural protein)” yielded a stoichiometry N of 6.

By stoichiometry N is commonly meant the number of molecules, sites or subunits per partner or assembly.
